The source of these data is patent publication US20250066503A1, “CELL INJURY INDUCING THERAPEUTIC DRUG FOR USE IN CANCER THERAPY” (CHUGAI SEIYAKU KABUSHIKI KAISHA, priority 2016, published 2025).

The Kd is the free concentration of one partner at which half of the binding sites on the other are occupied at equilibrium, for simple one-to-one binding. The low end stands for a tighter complex, the high end for a looser complex.

The assay concerns the target T1, human GPC3 (human, UniProt P51654 25-563).
T1 construct: range 25-563; soluble analyte; also called soluble human GPC3; glypican 3
The assay can be described thus: SPR.

T1 sequence (P51654 25-563 limits assumed): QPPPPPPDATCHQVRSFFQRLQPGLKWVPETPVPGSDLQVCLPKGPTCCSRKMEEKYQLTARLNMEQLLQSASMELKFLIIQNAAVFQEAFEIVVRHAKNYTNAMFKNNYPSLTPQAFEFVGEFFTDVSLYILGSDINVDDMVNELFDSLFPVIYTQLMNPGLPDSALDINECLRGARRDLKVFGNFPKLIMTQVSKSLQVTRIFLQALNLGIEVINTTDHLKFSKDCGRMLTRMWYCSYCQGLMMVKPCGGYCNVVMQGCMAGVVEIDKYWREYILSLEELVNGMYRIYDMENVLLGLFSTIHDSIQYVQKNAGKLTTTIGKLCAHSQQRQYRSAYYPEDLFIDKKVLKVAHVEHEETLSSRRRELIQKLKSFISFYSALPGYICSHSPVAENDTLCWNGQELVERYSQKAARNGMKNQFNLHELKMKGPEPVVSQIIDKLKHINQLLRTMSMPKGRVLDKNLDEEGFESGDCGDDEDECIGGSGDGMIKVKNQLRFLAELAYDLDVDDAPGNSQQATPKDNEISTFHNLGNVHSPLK

B1: GCH039-G1dh/none-Hi-Kn010G3/L0000-k0 (antibody, V domains shown)
VH: QVQLVQSGAEVKKPGASVKVSCKASGYTFTDYEMHWIRQPPGQGLEWIGAIDGKTPDTAYSQKFKGRVTLTADKSTSTAYMELESLTSEDTAVYYCTRFYSYTYWGQGTLVTVSS
VL: DIVMTQSPLSLPVTPGEPASISCRSSQSLVHSNRNTYLHWYQQKPGQAPRLLIYKVSNRFSGVPDRFSGSGSGTDFTLKISRVEAEDVGVYYCGQGTQVPYTFGQGTKLEIKR
notes: one-arm
In the case of B1, the Kd worked out at 4.95 nM.

B2: GCH045-G1dh/none-Hi-Kn010G3/L0000-k0 (antibody, V domains shown)
VH: QVQLVQSGAEVKKPGASVKVSCKASGYTFTDYEMHWIRQPPGQGLEWIGAIDGKTPDTAYSQKFKGRVTLTADKSTSTAYMELSSLTSEDTAEYYCTRFYSYTYWGQGTLVTVSS
VL: DIVMTQSPLSLPVTPGEPASISCRSSQSLVHSNRNTYLHWYQQKPGQAPRLLIYKVSNRFSGVPDRFSGSGSGTDFTLKISRVEAEDVGVYYCGQGTQVPYTFGQGTKLEIKR
notes: one-arm
B2 showed a Kd of 4.63 nM. This Kd and that of the molecule before are within 1.5-fold of each other.

B3: GCH056-G1dh/none-Hi-Kn010G3/L0011-k0 (antibody, V domains shown)
VH: QVQLVQSGAEVKKPGASVTVSCKASGYTFTDYEMHWIRQPPGEGLEWIGAIDGETPDTAYSQKFEGRVTLTADKSTSTAYMELSSLTSEDTAVYYCTRFYSYTYWGQGTLVTVSS
VL: DIVMTQSPLSLPVTPGEPASISCRSSQPLVHSNRNTYLHWYQQKPGQAPRLLIYKVSNRFSGVPDRFSGSGSGTDFTLKISRVEAEDVGVYYCGQGTQVPYTFGQGTKLEIKR
notes: one-arm
Turning to B3, binding was put at a Kd of 4.31 nM.

B4: GCH054-G1dh/none-Hi-Kn010G3/L0203-k0 (antibody, V domains shown)
VH: QVQLVQSGAEVKKPGASVTVSCKASGYTFTDYEMHWIRQPPGEGLEWIGAIDGETPDTAYSEKFKGRVTLTADKSTSTAYMELSSLTSEDTAVYYCTRFYSYTYWGQGTLVTVSS
VL: DIVMTQSPLSLPVTPGEPASISCRSSQSPVHSNRNTYIHWYQQKPGQAPRLLIYKVSNRFSGVPDRFSGSGSGTDFTLKISRVEAEDVGVYYCGQGTQVPYTFGQGTKLEIKR
notes: one-arm
Take B4: the Kd is 2.48 nM.

B5: GCH054-G1dh/none-Hi-Kn010G3/L0201-k0 (antibody, V domains shown)
VH: QVQLVQSGAEVKKPGASVTVSCKASGYTFTDYEMHWIRQPPGEGLEWIGAIDGETPDTAYSEKFKGRVTLTADKSTSTAYMELSSLTSEDTAVYYCTRFYSYTYWGQGTLVTVSS
VL: DIVMTQSPLSLPVTPGEPASISCRSSQPPVHSNRNTYLHWYQQKPGQAPRLLIYKVSNRFSGVPDRFSGSGSGTDFTLKISRVEAEDVGVYYCGQGTQVPYTFGQGTKLEIKR
notes: one-arm
Regarding B5, binding was put at a Kd of 1.08 nM.

B6: GCH060-G1dh/none-Hi-Kn010G3/L0222-k0 (antibody, V domains shown)
VH: QVQLVQSGAEVKKPGASVTVSCKASGYTFEDYEMHWIRQPPGEGLEWIGAIDGETPDTAYSQKFEGRVTLTADKSTSTAYMELSSLTEEDTAVYYCTRFYSYTYWGQGTLVTVSS
VL: DIVMTQSPLSLPVTPGEPASISCRSSQSPVHSNRNTYIQWYQQKPGQAPRLLIYKVSNRFSGVPDRFSGSGSGTDFTLKISRVEAEDVGVYYCYQGTQVPYTFGQGTKLEIKR
notes: one-arm
B6 came in with a Kd of 0.000642 nM.

B7: GCH053-G1dh/none-Hi-Kn010G3/L0000-k0 (antibody, V domains shown)
VH: QVQLVQSGAEVKKPGASVTVSCKASGYTFTDYEMHWIRQPPGEGLEWIGAIDGETPDTAYEQKFKGRVTLTADKSTSTAYMELSSLTSEDTAVYYCTRFYSYTYWGQGTLVTVSS
VL: DIVMTQSPLSLPVTPGEPASISCRSSQSLVHSNRNTYLHWYQQKPGQAPRLLIYKVSNRFSGVPDRFSGSGSGTDFTLKISRVEAEDVGVYYCGQGTQVPYTFGQGTKLEIKR
notes: one-arm
Take B7: the Kd came to 4.05 nM.

B8: GCH054-G1dh/none-Hi-Kn010G3/L0222-k0 (antibody, V domains shown)
VH: QVQLVQSGAEVKKPGASVTVSCKASGYTFTDYEMHWIRQPPGEGLEWIGAIDGETPDTAYSEKFKGRVTLTADKSTSTAYMELSSLTSEDTAVYYCTRFYSYTYWGQGTLVTVSS
VL: DIVMTQSPLSLPVTPGEPASISCRSSQSPVHSNRNTYIQWYQQKPGQAPRLLIYKVSNRFSGVPDRFSGSGSGTDFTLKISRVEAEDVGVYYCYQGTQVPYTFGQGTKLEIKR
notes: one-arm
In the case of B8, the Kd turned out to be 0.0315 nM.

B9: GCH057-G1dh/none-Hi-Kn010G3/L0222-k0 (antibody, V domains shown)
VH: QVQLVQSGAEVKKPGASVTVSCKASGYTFTDYEMHWIRQPPGEGLEWIGAIDGETPDTAYSEKFEGRVTLTADKSTSTAYMELSSLTSEDTAVYYCTRFYSYTYWGQGTLVTVSS
VL: DIVMTQSPLSLPVTPGEPASISCRSSQSPVHSNRNTYIQWYQQKPGQAPRLLIYKVSNRFSGVPDRFSGSGSGTDFTLKISRVEAEDVGVYYCYQGTQVPYTFGQGTKLEIKR
notes: one-arm
Turning to B9, the Kd came out at 0.00185 nM.

B10: GCH042-G1dh/none-Hi-Kn010G3/L0000-k0 (antibody, V domains shown)
VH: QVQLVQSGAEVKKPGASVKVSCKASGYTFTDYEMHWIRQPPGQGLEWIGAIDGKTPDTAYSQKFKGRVTLTADKSTSTAYMELSSLTEEDTAVYYCTRFYSYTYWGQGTLVTVSS
VL: DIVMTQSPLSLPVTPGEPASISCRSSQSLVHSNRNTYLHWYQQKPGQAPRLLIYKVSNRFSGVPDRFSGSGSGTDFTLKISRVEAEDVGVYYCGQGTQVPYTFGQGTKLEIKR
notes: one-arm
B10 registered a Kd of 4.89 nM.

B11: GCH043-G1dh/none-Hi-Kn010G3/L0000-k0 (antibody, V domains shown)
VH: QVQLVQSGAEVKKPGASVKVSCKASGYTFTDYEMHWIRQPPGQGLEWIGAIDGKTPDTAYSQKFKGRVTLTADKSTSTAYMELSSLTSEDEAVYYCTRFYSYTYWGQGTLVTVSS
VL: DIVMTQSPLSLPVTPGEPASISCRSSQSLVHSNRNTYLHWYQQKPGQAPRLLIYKVSNRFSGVPDRFSGSGSGTDFTLKISRVEAEDVGVYYCGQGTQVPYTFGQGTKLEIKR
notes: one-arm
On to B11, for which the Kd worked out at 3.74 nM.

B12: GCH054-G1dh/none-Hi-Kn010G3/L0212-k0 (antibody, V domains shown)
VH: QVQLVQSGAEVKKPGASVTVSCKASGYTFTDYEMHWIRQPPGEGLEWIGAIDGETPDTAYSEKFKGRVTLTADKSTSTAYMELSSLTSEDTAVYYCTRFYSYTYWGQGTLVTVSS
VL: DIVMTQSPLSLPVTPGEPASISCRPSQSPVHSNRNTYLHWYQQKPGQAPRLLIYKVSNRFSGVPDRFSGSGSGTDFTLKISRVEAEDVGVYYCYQGTQVPYTFGQGTKLEIKR
notes: one-arm
Take B12: the Kd amounted to 0.517 nM.

B13: GCH056-G1dh/none-Hi-Kn010G3/L0000-k0 (antibody, V domains shown)
VH: QVQLVQSGAEVKKPGASVTVSCKASGYTFTDYEMHWIRQPPGEGLEWIGAIDGETPDTAYSQKFEGRVTLTADKSTSTAYMELSSLTSEDTAVYYCTRFYSYTYWGQGTLVTVSS
VL: DIVMTQSPLSLPVTPGEPASISCRSSQSLVHSNRNTYLHWYQQKPGQAPRLLIYKVSNRFSGVPDRFSGSGSGTDFTLKISRVEAEDVGVYYCGQGTQVPYTFGQGTKLEIKR
notes: one-arm
The molecule B13 came in with a Kd of 5.03 nM.

B14: GCH055-G1dh/none-Hi-Kn010G3/L0000-k0 (antibody, V domains shown)
VH: QVQLVQSGAEVKKPGASVTVSCKASGYTFTDYEMHWIRQPPGEGLEWIGAIDGETPDTAYSDKFKGRVTLTADKSTSTAYMELSSLTSEDTAVYYCTRFYSYTYWGQGTLVTVSS
VL: DIVMTQSPLSLPVTPGEPASISCRSSQSLVHSNRNTYLHWYQQKPGQAPRLLIYKVSNRFSGVPDRFSGSGSGTDFTLKISRVEAEDVGVYYCGQGTQVPYTFGQGTKLEIKR
notes: one-arm
The molecule B14 registered a Kd of 5.6 nM.

B15: GCH054-G1dh/none-Hi-Kn010G3/L0000-k0 (antibody, V domains shown)
VH: QVQLVQSGAEVKKPGASVTVSCKASGYTFTDYEMHWIRQPPGEGLEWIGAIDGETPDTAYSEKFKGRVTLTADKSTSTAYMELSSLTSEDTAVYYCTRFYSYTYWGQGTLVTVSS
VL: DIVMTQSPLSLPVTPGEPASISCRSSQSLVHSNRNTYLHWYQQKPGQAPRLLIYKVSNRFSGVPDRFSGSGSGTDFTLKISRVEAEDVGVYYCGQGTQVPYTFGQGTKLEIKR
notes: one-arm
Take B15: the affinity, expressed as Kd, was 5.3 nM.

B16: GCH055-G1dh/none-Hi-Kn010G3/L0212-k0 (antibody, V domains shown)
VH: QVQLVQSGAEVKKPGASVTVSCKASGYTFTDYEMHWIRQPPGEGLEWIGAIDGETPDTAYSDKFKGRVTLTADKSTSTAYMELSSLTSEDTAVYYCTRFYSYTYWGQGTLVTVSS
VL: DIVMTQSPLSLPVTPGEPASISCRPSQSPVHSNRNTYLHWYQQKPGQAPRLLIYKVSNRFSGVPDRFSGSGSGTDFTLKISRVEAEDVGVYYCYQGTQVPYTFGQGTKLEIKR
notes: one-arm
B16 had a Kd of 0.614 nM. Against the preceding molecule, the Kd is about 8.6-fold lower.

B17: GCH055-G1dh/none-Hi-Kn010G3/L0222-k0 (antibody, V domains shown)
VH: QVQLVQSGAEVKKPGASVTVSCKASGYTFTDYEMHWIRQPPGEGLEWIGAIDGETPDTAYSDKFKGRVTLTADKSTSTAYMELSSLTSEDTAVYYCTRFYSYTYWGQGTLVTVSS
VL: DIVMTQSPLSLPVTPGEPASISCRSSQSPVHSNRNTYIQWYQQKPGQAPRLLIYKVSNRFSGVPDRFSGSGSGTDFTLKISRVEAEDVGVYYCYQGTQVPYTFGQGTKLEIKR
notes: one-arm
In turn, B17 came in with a Kd of 0.0039 nM. This Kd lies about 160-fold lower than the previous one.

B18: GCH056-G1dh/none-Hi-Kn010G3/L0201-k0 (antibody, V domains shown)
VH: QVQLVQSGAEVKKPGASVTVSCKASGYTFTDYEMHWIRQPPGEGLEWIGAIDGETPDTAYSQKFEGRVTLTADKSTSTAYMELSSLTSEDTAVYYCTRFYSYTYWGQGTLVTVSS
VL: DIVMTQSPLSLPVTPGEPASISCRSSQPPVHSNRNTYLHWYQQKPGQAPRLLIYKVSNRFSGVPDRFSGSGSGTDFTLKISRVEAEDVGVYYCGQGTQVPYTFGQGTKLEIKR
notes: one-arm
B18 returned a Kd of 1.16 nM.

B19: GCH040-G1dh/none-Hi-Kn010G3/L0000-k0 (antibody, V domains shown)
VH: QVQLVQSGAEVKKPGASVKVSCKASGYTFTDYEMHWIRQPPGQGLEWIGAIDGKTPDTAYSQKFKGRVTLTADKSTSTAYMELSELTSEDTAVYYCTRFYSYTYWGQGTLVTVSS
VL: DIVMTQSPLSLPVTPGEPASISCRSSQSLVHSNRNTYLHWYQQKPGQAPRLLIYKVSNRFSGVPDRFSGSGSGTDFTLKISRVEAEDVGVYYCGQGTQVPYTFGQGTKLEIKR
notes: one-arm
The molecule B19 registered a Kd of 4.8 nM.

B20: GCH057-G1dh/none-Hi-Kn010G3/L0000-k0 (antibody, V domains shown)
VH: QVQLVQSGAEVKKPGASVTVSCKASGYTFTDYEMHWIRQPPGEGLEWIGAIDGETPDTAYSEKFEGRVTLTADKSTSTAYMELSSLTSEDTAVYYCTRFYSYTYWGQGTLVTVSS
VL: DIVMTQSPLSLPVTPGEPASISCRSSQSLVHSNRNTYLHWYQQKPGQAPRLLIYKVSNRFSGVPDRFSGSGSGTDFTLKISRVEAEDVGVYYCGQGTQVPYTFGQGTKLEIKR
notes: one-arm
For the molecule B20, the Kd was 5.61 nM. This Kd and that of the molecule before are within 1.5-fold of each other.

B21: GCH059-G1dh/none-Hi-Kn010G3/L0000-k0 (antibody, V domains shown)
VH: QVQLVQSGAEVKKPGASVTVSCKASGYTFTDYEMHWIRQPPGEGLEWIGAIDGETPDTAYSQKFEGRVTLTADKSTSTAYMELSSLTEEDTAVYYCTRFYSYTYWGQGTLVTVSS
VL: DIVMTQSPLSLPVTPGEPASISCRSSQSLVHSNRNTYLHWYQQKPGQAPRLLIYKVSNRFSGVPDRFSGSGSGTDFTLKISRVEAEDVGVYYCGQGTQVPYTFGQGTKLEIKR
notes: one-arm
The molecule B21 came in with a Kd of 5.7 nM. The Kd values of the last two molecules are within 1.5-fold of each other.
